Measurements as given in US20200407445A1 (ITEOS THERAPEUTICS, published 2020).

T1: recombinant human TIGIT protein (construct not stated) (human, UniProt Q495A1 22-141, limits assumed)
T1 construct: also called hTIGIT (Creative Biomart); recombinant TIGIT protein
T1 sequence (looked up): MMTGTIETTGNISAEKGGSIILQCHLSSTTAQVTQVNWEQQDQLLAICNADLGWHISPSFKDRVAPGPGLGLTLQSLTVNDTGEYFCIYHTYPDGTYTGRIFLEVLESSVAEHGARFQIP

T2: human TIGIT expressed on cells (human, UniProt Q495A1 22-244)
T2 sequence (looked up): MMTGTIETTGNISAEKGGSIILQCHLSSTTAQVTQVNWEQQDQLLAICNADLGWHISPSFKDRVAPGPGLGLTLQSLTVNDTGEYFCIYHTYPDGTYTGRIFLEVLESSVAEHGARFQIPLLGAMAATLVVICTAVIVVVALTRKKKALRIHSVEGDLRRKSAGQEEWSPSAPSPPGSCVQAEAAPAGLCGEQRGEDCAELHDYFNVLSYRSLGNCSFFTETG

T3: mouse TIGIT expressed on cells (mouse, UniProt P86176 29-249)
T3 construct: whole, on cells; on Jurkat cells engineered to express mouse TIGIT; also called mTIGIT; Jurkat-mTIGIT
T3 sequence (looked up): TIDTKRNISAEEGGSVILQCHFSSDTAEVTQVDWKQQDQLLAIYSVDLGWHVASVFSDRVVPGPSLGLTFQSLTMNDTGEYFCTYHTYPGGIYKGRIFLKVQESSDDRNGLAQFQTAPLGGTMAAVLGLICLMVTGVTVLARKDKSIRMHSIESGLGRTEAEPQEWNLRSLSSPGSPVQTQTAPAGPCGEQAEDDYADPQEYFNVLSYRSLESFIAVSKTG

T4: Human TIGIT-Fc (human, UniProt Q495A1 22-141)
T4 construct: bought (Creative Biomart); also called TIGIT-Fc antigen; TIGIT-Fc fusion antigen; not shown: Fc part
T4 sequence (looked up): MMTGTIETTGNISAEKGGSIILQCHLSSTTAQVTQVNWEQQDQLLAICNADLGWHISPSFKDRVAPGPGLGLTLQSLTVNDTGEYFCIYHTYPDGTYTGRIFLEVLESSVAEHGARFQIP


Legend:
[1] = biological target: T1, recombinant human TIGIT protein …; assay: Biacore T200, IgG captured by anti-human Fc, antigen in solution, 1:1 kinetic model
Protocol: (§1) Biosensor analysis was conducted at 25° C. in a HBS-EP buffer system (10 mM HEPES pH 7.3, 150 mM NaCl, 3 mM EDTA, 0.05% Tween20) using Biacore T200 technology, CMS sensor chip (run at Novalix, France). The sample hotel was maintained at 8° C. Goat anti-human IgG capture antibody (Fcγ fragment specific, Jackson ImmunoResearch Laboratories) was immobilized (10000 RU) to both flow cells of the sensor chip using standard amine coupling chemistry. This surface type provided a format for reproducibly capturing fresh analysis antibody after each regeneration step. Flow cell 2 was used to analyse captured antibody while flow cell 1 was used as a reference flow cell. […] Two blank (buffer) injections also were run and used to assess and subtract system artefacts. The association (300 s) and dissociation (600 s) phases for all antigen concentrations were performed at a flow rate of 30 uL/min. The surface was regenerated with three sequential injections (15 s, 15 s and 60 s) of 10 mM glycine-HCl, pH 1.5. The obtained sensorgrams were fitted globally to a 1:1 model (assuming the same kinetic values for all applied concentrations).

[2] = biological target: T2, human TIGIT expressed on cells; assay: cell-based or functional assay
[3] = biological target: T2, human TIGIT expressed on cells; assay: flow cytometry on Jurkat-hTIGIT
Protocol: (§2) Antibodies were incubated with the cells for 20 min at 4° C. in FACS buffer. […] Fluorescence intensity was analysed using LSR BD Fortessa and cell binding was recorded as the median fluorescence intensity of PE in cells expressing TIGIT at their surface.
(§3) The half-maximal concentration of binding (EC50) to Jurkat-hTIGIT was calculated using a four-variable curve-fit equation in Prism.

[4] = biological target: T2, human TIGIT expressed on cells; assay: flow cytometry, primary CD8+ T cells of healthy human PBMC, MFI
Protocol: Isolated human PBMCs from healthy volunteers were analysed for binding by antagonist anti-TIGIT antibodies. Cells were distributed at 1×10⁵ cells per well. Cells were incubated with anti-CD16 (Clone 3G8, BioLegend 302002), CD32 (Clone FLI8.26, BD Bioscience 557333) and CD64 (BD Bioscience 555525) at room temperature for 10 min, and the indicated anti-human TIGIT antibody clones were directly added at a final concentration of 8; 4; 2; 1; 0.5; 0.25; 0.125; 0.062; 0.031; 0.016; 8×10⁻³ and 4×10⁻³ nM in FACS buffer and incubated for 20 min at 4° C. […] Then, cells were washed and incubated with the following antibodies and LVD mix: anti-CD4-PercP-Cy5.5 (clone A161A1, BioLegend 357414); anti-CD8-BV510 (clone SK1, BD Bioscience 563919) and LVD efluor 660 (eBioscience 65-0864-18).
The EC50 values for binding to CD8+ human primary T cells were calculated using the MFI signal on living TIGIT+CD8+ T cells.

[5] = biological target: T2, human TIGIT expressed on cells; assay: cell-based or functional assay; remark: listed apart in the source
[6] = biological target: T2, human TIGIT expressed on cells; assay: flow cytometry, competition with CD155-His (15 ug/ml) on Jurkat-hTIGIT
[7] = biological target: T2, human TIGIT expressed on cells; assay: flow cytometry, primary CD8+ T cells of cancer patients' PBMC, MFI
Protocol: Cells were distributed at 1×10^5 cells per well. […] Then, cells were washed and incubated with the following antibodies and life viability dye (LVD) mix: anti-CD4-PercP-Cy5.5 (clone A161A1, BioLegend 357414); anti-CD8-BV510 (clone SK1, BD Bioscience 563919) and LVD efluor 520 (eBioscience 65-0867-14). Cells were washed and fixed and surface staining was quantified using BD LSR Fortessa. Flow cytometry data was analysed using FlowJo V10.1. TIGIT MFI on gated LVD-TIGIT+CD8+ cells was used to calculate EC50 values.

[8] = biological target: T2, human TIGIT expressed on cells; assay: flow cytometry on Jurkat-hTIGIT; remark: listed apart in the source
Protocol: as §2, §3

[9] = biological target: T2, human TIGIT expressed on cells; assay: cell-based or functional assay; remark: listed apart in the source
[10] = biological target: T2, human TIGIT expressed on cells; assay: flow cytometry, 100 nM Ab, Jurkat-hTIGIT vs untransfected
Protocol: (§4) Antibodies were incubated with the cells for 20 min at 4° C. in FACS buffer. […] Geometric mean fluorecence intensity was analysed using LSR BD Fortessa. Cell binding was recorded as the median florescence intensity of PE on the transfected line compared to the un-transfected line for each antibody (Table 3).

[11] = biological target: T3, mouse TIGIT expressed on cells; assay: flow cytometry, competition with mouse CD155-His-Fc (4 ug/ml) on Jurkat-mTIGIT, FIG. 15A
Protocol: Cells were washed once, and stained with PE-anti-His antibody (Biolegend, 362603) during 30 min at 4° C.

[12] = biological target: T3, mouse TIGIT expressed on cells; assay: flow cytometry, 100 nM Ab, Jurkat-mTIGIT vs untransfected
Protocol: as §4

[13] = biological target: T3, mouse TIGIT expressed on cells; assay: cell-based or functional assay
[14] = biological target: T4, Human TIGIT-Fc; assay: ForteBio BLI, IgG KD, avid
[15] = biological target: T1, recombinant human TIGIT protein …; assay: Biacore T200, IgG captured by anti-human Fc, antigen in solution, steady state model
Protocol: as §1, with “The obtained sensorgrams were fitted globally to a 1:1 model (assuming the same kinetic values for all applied concentrations).” left out

Binder	EC50 [3]	EC50 [4]	Fold change of EC50 over EC50 of best clone (31282_wu) [4]	Fold change of IC50 over IC50 of best clone (31282_up) [6]	IC50 [6]	EC50 [7]	Fold change of EC50 over EC50 of best clone (31282) [7]	EC50 [8]	Fold change of EC50 over EC50 of best clone (31282_wu) [8]	also measured
4.1D3.Q1E (comparative anti-TIGIT antibody, human IgG1) (antibody, V domains shown, from WO2017/053748; made in HEK cells as human IgG1) VH: EVQLQQSGPGLVKPSQTLSLTCAISGDSVSSNSAAWNWIRQSPSRGLEWLGKTYYRFKWYSDYAVSVKGRITINPDTSKNQFSLQLNSVTPEDTAVFYCTRESTTYDLLAGPFDYWGQGTLVTVSS VL: not shown	0.267 nM	1.88 nM	9.7 fold	1.9 fold	0.07 nM	1.15 nM	9.5 fold	0.27 nM	2.5 fold	Kd [1]: 0.044 nM; koff [1]: 4.72e-05 s⁻¹; EC50 (nM), IFNg, human primary CD8+ T cells [2]: 1.43 nM; Fold change of EC50 over EC50 of best clone (31282_wu) [2]: 10.8 fold; Induction over isotype control (fold change), IFNg, human primary CD8+ T cells + CD155 aAPC/CHO-K1 [2]: 2.9 fold; EC50 (nM), luciferase, Jurkat-hTIGIT [5]: 10.3 nM; Fold change of EC50 over EC50 of best clone (31282_up) [5]: 3.1 fold; Induction over Isotype control (fold change), luciferase, Jurkat-hTIGIT + CD155 aAPC/CHO-K1 [5]: 5.8 fold
anti-TIGIT antibody clone 26493 (IgG) (antibody, V domains shown, parent clone; also called surrogate anti-TIGIT antagonistic antibody) VH: EVQLVESGGGLVQPGRSLRLSCAASGFTFGDYAMHWVRQAPGKGLEWVSGITWNSGSIGYADSVKGRFTISRDNAKNSLYLQMNSLRAEDTALYYCAKPVPKSRGLDVWGQGTMVTVSS VL: DIQLTQSPSSVSASVGDRVTITCRASQGISSWLAWYQQKPGKAPKLLIYGASSLQSGVPSRFSGSGSGTDFTLTISSLQPEDFATYYCQQAFYLPWTFGGGTKVEIK	–	–	–	–	–	–	–	–	–	Induction over Isotype control (fold change), luciferase, Jurkat-hTIGIT + CHO-TCR-CD155, 133 nM [9]: 0.96 fold; FON (Fold Over Negative) [10]: 80 fold; IC50 [11]: 2.3 nM; FON (Fold Over Negative) [12]: 463 fold; IFNg production by mouse OT-I CD8+ T cells co-cultured with OVA-pulsed PanO2 cells (express CD155), 133 nM [13]: ~2 fold; Kd [14]: 1.49 nM
313M32 (comparative anti-TIGIT antibody, human IgG1) (antibody, V domains shown, from WO2016/191643; made in HEK cells as human IgG1; the VL as printed ends at ...TFG (FR4 not complete); also called 313M2) VH: QVQLQESGPGLVKPSETLSLTCAVSGYSITSDYAWNWIRQPPGKGLEWIGYISYSGSTSYNPSLRSRVTISRDTSKNQFFLKLSSVTAADTAVYYCARRQVGLGFAYWGQGTLVTVSS VL: DIQMTQSPSSLSASVGDRVTITCKASQDVSTAVAWYQQKPGKAPKLLIYSASYRYTGVPSRFSGSGSGTDFTFTISSLQPEDIATYYCQQHYSTPWTFG	0.445 nM	1.45 nM	7.5 fold	16.7 fold	0.65 nM	1 nM	8.3 fold	0.44 nM	4.2 fold	Kd [15]: 10.1 nM
